One data set has as its target T1, human αvβ6 integrin (Homo sapiens, UniProt P06756+P18564, DEL708-788).
T1 construct: purchased R&D Systems
Nature of the data set: Competitive solid-phase αvβ6 integrin binding assay to coated LAP. The conditions noted are these: competitive solid-phase binding to coated LAP (0.4 μg/mL); soluble human αvβ6 0.25 μg/mL; compounds 10^-5–10^-10 M, 1 h room temperature; absorbance 450 nm; mean ± SD of three independent experiments in triplicate. The method, then:
The ability of conjugate 1 to bind to the human, isolated αvβ6 integrin receptor was evaluated by a competitive solid-phase ligand-binding assay on purified αvβ6 integrin in the presence of increasing concentrations (10^–10–10^–5 M) of 1. To better evaluate the impact of the linker and nintedanib moieties on the binding capability of 1, the results (Table ) were compared to those obtained for free cyclopeptide 3 and previously reported cyclopeptide 11 (the deprotected version of prot-11, Scheme ). Binding curves are provided in Figure S3, Supporting Information.
The affinity of integrin ligands 1, 3, and 11 was determined by the solid-phase binding assay using soluble αvβ6 integrin and coated LAP, according to a previously reported protocol. Flat-bottom 96-well plates (Corning Costar, Segrate, Milan, Italy) were coated by passive adsorption with LAP (TGF-β; 0.4 μg/mL; R&D Systems) in carbonate buffer (15 mM Na2CO3 and 35 mM NaHCO3, pH 9.6; 100 μL/well) overnight at 4 °C. After three washes with PBS-T buffer (phosphate-buffered saline–Tween20, 137 mM NaCl, 2.7 mM KCl, 10 mM Na2HPO4, 2 mM KH2PO4, and 0.01% Tween20, pH 7.4; 200 μL/well), wells were blocked with TS-B buffer (Tris–saline/BSA buffer; 20 mM Tris–HCl, 150 mM NaCl, 1 mM CaCl2, 1 mM MgCl2, 1 mM MnCl2, pH 7.5, and 1% BSA; 150 μL/well) for 1 h at room temperature. After washing the assay plate three times with PBS-T (200 μL/well), soluble human αvβ6 integrin (0.25 μg/mL, R&D Systems) was incubated with compounds and tested at different concentrations (10^–5–10^–10 M), in the coated wells for 1 h at room temperature. The plate was washed three times with PBS-T buffer, and anti-αv primary antibody (1:500 dilution, 100 μL/well; mouse antihuman MAB1978, Merck Life Science, Milan, Italy) was added and incubated for 1 h at room temperature. […] The reaction was stopped with 1 M H2SO4 (50 μL/well), and the absorbance was measured at 450 nm with an EnSpire Multimode Plate Reader (PerkinElmer, Waltham, MA). […] Data analysis and IC50 affinity values were calculated using GraphPad Prism 10.4.1 (GraphPad Software, San Diego, CA). […]

Data set [1] is described as follows: In vitro stability in mouse plasma (LC-MS/MS). It counts as in vitro ADME. To be noted: 80% v/v mouse plasma in 100 mM PBS pH 7.4, 37 °C, plasma pre-incubated 10 min, 1% DMSO, LC-MS/MS (MRM, ESI+), vs t = 0, mean ± SD (n=3), read-out: % Compound at 6h mouse plasma. The method, then: (§1) 2. In vitro plasma stability of compounds 1 and 2
(§2) Stability of compounds 1 and 2 in mouse and human plasma was evaluated by incubating 5 μL of a 100 µM solution of each compound in DMSO with 400 μL of plasma and 95 μL of 100 mM phosphate buffered saline (PBS) pH 7.4 (final compound concentration: 1 µM; final DMSO concentration: 1%). Plasma samples were pre-incubated at 37 °C for 10 min before adding the compound. At different time points, an aliquot was withdrawn from each sample and deproteinized by addition of 100 μL of ice-cold acetonitrile containing the structurally related compound 13 as internal standard (Table S1). After a centrifugation step (14,000 g, 10 min, 4 °C), the supernatants were analyzed by LC-MS/MS. A multiple reaction monitoring (MRM) acquisition method in positive ion mode (ESI+) was set up to monitor the remaining percentages of test compound at different time points, if compared to time t = 0.
(§3) LC-MS/MS Analytical Method. A Thermo TSQ Quantum triple-quadrupole mass spectrometer (Thermo Italia, Milan, Italy) equipped with a heated electrospray (H-ESI) ion source and coupled to a Thermo Accela UHPLC system was employed for LC-MS/MS data acquisition and analysis. The LC separation occurred on a Waters XSelect HSS T3 column (3.5 μm, 2.1 × 100 mm; Waters, Milford, USA) at room temperature. […]

Data set [2] can be described thus: In vitro stability in human plasma (LC-MS/MS). Format: in vitro ADME. To be noted: 80% v/v human plasma in 100 mM PBS pH 7.4, 37 °C, plasma pre-incubated 10 min, 1% DMSO, LC-MS/MS (MRM, ESI+), vs t = 0, mean ± SD (n=3), read-out: % Compound at 6h human plasma. The method, then:
as §1, §2, §3

Data set [3] concerns the target soluble human αvβ6 integrin (human) (UniProt P06756). Nature of the data set: ELISA; competitive solid-phase binding assay: LAP (0.4 μg/mL) coated in carbonate buffer pH 9.6 overnight at 4 °C, blocked with TS-B buffer (20 mM Tris–HCl, 150 mM NaCl, 1 mM CaCl2, 1 mM MgCl2, 1 mM MnCl2, pH 7.5, 1% BSA); soluble human αvβ6 (0.25 μg/mL) incubated with compounds (10^-5–10^-10 M) in the coated wells 1 h at room temperature; bound integrin detected with anti-αv antibody and HRP secondary. (In general: An ELISA detects its analyte on a solid surface through an enzyme-linked reagent.)

Numbered stars: 1 amine (or outer) side, 2 acyl side, 3 side chain; on linkers, the order of the positions; unused ones are H or OH. Square brackets hold non-standard residues; d marks the D form. Peptide text beside a SMILES is read from it. X1 = [N-]=[N+]=NCCCCN1C[C@@H](N[*:1])C[C@H]1C(=O)[*:2]

For orientation: IC50 means the concentration at which inhibition is half-maximal. Take `COC(=O)c1ccc2c(c1)NC(=O)/C2=C(\Nc1ccc(N(C)C(=O)CN2CCN(CCOCCOCCOCc3cn(CCCCN4C[C@@H]5C[C@H]4C(=O)N[C@@H](CC(C)C)C(=O)N[C@@H](CCCNC(=N)N)C(=O)NCC(=O)N[C@@H](CC(=O)O)C(=O)N[C@@H](CC(C)C)C(=O)N5)nn3)CC2)cc1)c1ccccc1` [compound 1]: the IC50 at human αvβ6 integrin worked out at 1.95 ± 0.16 nM. The remaining at 6 h in data set [1] worked out at 95 ± 4%; in data set [2], 96 ± 5%. For `CC(C)C[C@@H]1NC(=O)[C@H](CC(=O)O)NC(=O)CNC(=O)[C@H](CCCNC(=N)N)NC(=O)[C@H](CC(C)C)NC(=O)[C@@H]2C[C@@H](CN2C(=O)CCCCCNC(=O)CCc2ccc(OC3=C(/C=C/C4=[N+](CCC[N+](C)(C)C)c5ccc(S(=O)(=O)O)cc5C4(C)C)CCC/C3=C\C=C3\N(CCC[N+](C)(C)C)c4ccc(S(=O)(=O)O)cc4C3(C)C)cc2)NC1=O` [compound 2], the remaining at 6 h in data set [1] stood at 59 ± 3%; in data set [2], 51 ± 3%.

Compound `CC(C)C[C@@H]1NC(=O)[C@H](CC(=O)O)NC(=O)CNC(=O)[C@H](CCCNC(=N)N)NC(=O)[C@H](CC(C)C)NC(=O)[C@@H]2C[C@@H](CN2CCCCN=[N+]=[N-])NC1=O` [compound 3] (cyclo(RGDL[X1]L)) showed an IC50 at human αvβ6 integrin of 4.52 ± 0.68 nM.

In the case of `CC(C)C[C@@H]1NC(=O)[C@H](CC(=O)O)NC(=O)CNC(=O)[C@H](CCCNC(=N)N)NC(=O)[C@H](CC(C)C)NC(=O)[C@@H]2C[C@@H](CN2C(=O)CCCCCN=[N+]=[N-])NC1=O` [compound 11], at human αvβ6 integrin, the IC50 amounted to 30.3 ± 7.6 nM.

With c(phg-isoDGRk) (peptide), in data set [3], the IC50 stood at 24.7 nM.

For the origin of these results see PMC12519263, “Antifibrotic Efficacy of a Nintedanib–Peptide Conjugate and Diagnostic Potential of a Fluorescent Companion Probe Targeting αVβ6 Integrin in Idiopathic Pulmonary Fibrosis” (ACS Pharmacology & Translational Science, 2025).
